Test [1] addresses sulfonylurea receptor SUR1 (UniProt Q09427).
Test [2] has the same target. The source holds these as a separate data set.
Test [3] shares this target. The source holds these as a separate data set.

Numbering of substitutions follows the chain as printed. Names may count otherwise.

Sequence of UniProt Q09427 (Q09427 whole entry): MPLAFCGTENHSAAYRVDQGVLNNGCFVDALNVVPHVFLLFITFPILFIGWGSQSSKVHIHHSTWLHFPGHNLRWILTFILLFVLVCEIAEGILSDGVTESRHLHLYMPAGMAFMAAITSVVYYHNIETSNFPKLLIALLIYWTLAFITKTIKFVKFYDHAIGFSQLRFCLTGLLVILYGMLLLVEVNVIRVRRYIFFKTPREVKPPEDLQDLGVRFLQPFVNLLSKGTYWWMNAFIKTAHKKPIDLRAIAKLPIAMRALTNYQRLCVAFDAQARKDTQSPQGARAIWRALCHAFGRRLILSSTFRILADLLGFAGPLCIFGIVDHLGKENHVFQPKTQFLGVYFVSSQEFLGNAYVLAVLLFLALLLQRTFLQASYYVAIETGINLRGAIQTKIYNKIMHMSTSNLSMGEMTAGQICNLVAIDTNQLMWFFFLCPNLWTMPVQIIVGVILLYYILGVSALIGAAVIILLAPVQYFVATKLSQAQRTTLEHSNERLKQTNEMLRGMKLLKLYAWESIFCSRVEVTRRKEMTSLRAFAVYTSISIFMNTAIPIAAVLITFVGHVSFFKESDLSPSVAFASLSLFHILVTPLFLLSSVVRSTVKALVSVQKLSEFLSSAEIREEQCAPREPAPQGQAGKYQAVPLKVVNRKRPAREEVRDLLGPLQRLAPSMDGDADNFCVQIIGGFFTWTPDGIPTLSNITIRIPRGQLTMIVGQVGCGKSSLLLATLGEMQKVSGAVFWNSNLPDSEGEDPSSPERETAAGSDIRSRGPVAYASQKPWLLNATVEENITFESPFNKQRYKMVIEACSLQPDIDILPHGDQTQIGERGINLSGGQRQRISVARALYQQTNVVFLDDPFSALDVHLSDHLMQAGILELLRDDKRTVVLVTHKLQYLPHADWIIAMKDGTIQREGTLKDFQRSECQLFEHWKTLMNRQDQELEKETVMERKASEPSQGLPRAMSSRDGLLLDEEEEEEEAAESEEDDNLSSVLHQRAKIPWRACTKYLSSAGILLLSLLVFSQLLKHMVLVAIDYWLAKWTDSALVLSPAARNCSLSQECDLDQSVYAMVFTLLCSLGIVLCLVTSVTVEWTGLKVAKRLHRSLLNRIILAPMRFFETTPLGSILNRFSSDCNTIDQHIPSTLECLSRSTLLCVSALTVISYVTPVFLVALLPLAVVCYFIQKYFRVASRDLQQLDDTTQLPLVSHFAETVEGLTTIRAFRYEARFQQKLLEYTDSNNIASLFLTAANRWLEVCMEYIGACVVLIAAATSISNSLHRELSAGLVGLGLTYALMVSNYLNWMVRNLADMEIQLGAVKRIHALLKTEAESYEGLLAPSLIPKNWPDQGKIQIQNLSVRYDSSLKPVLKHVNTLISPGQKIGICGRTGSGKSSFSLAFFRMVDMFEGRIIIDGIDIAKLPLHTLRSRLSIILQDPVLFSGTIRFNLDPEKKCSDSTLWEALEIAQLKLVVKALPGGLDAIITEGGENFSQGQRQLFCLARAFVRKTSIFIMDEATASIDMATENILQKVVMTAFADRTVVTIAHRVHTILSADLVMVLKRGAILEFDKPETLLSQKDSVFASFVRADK

B1: Kir6.2 wild-type linked to GFP at the COOH terminus (natural protein)
chain: MLSRKGIIPEEYVLTRLAEDPAEPRYRTRERRARFVSKKGNCNVAHKNIREQGRFLQDVFTTLVDLKWPHTLLIFTMSFLCSWLLFAMVWWLIAFAHGDLAPGEGTNVPCVTSIHSFSSAFLFSIEVQVTIGFGGRMVTEECPLAILILIVQNIVGLMINAIMLGCIFMKTAQAHRRAETLIFSKHAVITLRHGRLCFMLRVGDLRKSMIISATIHMQVVRKTTSPEGEVVPLHQVDIPMENGVGGNGIFLVAPLIIYHVIDSNSPLYDLAPSDLHHHQDLEIIVILEGVVETTGITTQARTSYLADEILWGQRFVPIVAEEDGRYSVDYSKFGNTIKVPTPLCTARQLDEDRSLLDALTLASSRGPLRKRSVAVAKAKPKFSISPDSLS
The molecule B1 came in with an inhibition of channel activity by 200 nM glyburide, inside-out patch clamp in test [1] of 45%. Besides, the reactivation by MgADP of ATP-inhibited channels, inside-out patch clamp in test [2] was found to be 46%.

B2: Kir6.2 mutant R176C linked to GFP (natural protein)
chain: B1 chain with R176C
As to B2, the inhibition of channel activity by 0.5 μM glyburide, inside-out patch clamp in test [3] was found to be 5.5%. Moreover, the reactivation by MgADP of ATP-inhibited channels, inside-out patch clamp in test [2] came out at 6%.

The values are drawn from paper PMC2233703.
